Experimental data: the supplement of paper PMC10126150
± gives the standard deviation of the averaged measurements.

These sequences were tested on ATP (assay: switch fluorescence ratio, 500 uM ATP over buffer (Cy3 cluster intensity, sum of 5 cycles each) (fold (ratio)); higher = stronger signal-on switching upon ATP binding; sequences stand for … in TCGTCGGCAGCGTCAGATGTGTATAAGAGACAGTTTTTTTTTTTTTTTTTTTTTTTTT…TC). Conditions: aptamer strand: ATP DNA aptamer (quencher-CACCTGGGGGAGTATTGCGGAGGAAGG + anchor), 100 nM annealed; ATP concentration: 500 uM.
Procedure, shortened: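 Exposure to 500 uM ATP lasted 15 min at 22 °C before imaging, and a selection-buffer image was taken beforehand, for Cy3-labelled switching-strand clusters on a modified Illumina MiSeq flow-cell annealed to 100 nM quencher-labelled ATP aptamer. Five buffer/ATP cycles were run with NaOH stripping and re-annealing between them. The fluorescence ratio per cluster is summed target-cycle over summed buffer-cycle Cy3 intensity, averaged per switch-domain sequence. Clusters outside 100-1000 RFU were excluded.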
AAAAAAAGCA showed a switch fluorescence ratio of 1.04 ± 0.05. AAAAAAAGGT showed a switch fluorescence ratio of 1.021 ± 0.01. Work on AAAAAAATCC yielded a switch fluorescence ratio of 1.01 ± 0.07. For AAAAAAATTC, the switch fluorescence ratio was 1.05 ± 0.079. AAAAAACCTA showed a switch fluorescence ratio of 1.063 ± 0.008. Work on AAAAAACGCT yielded a switch fluorescence ratio of 1.08 ± 0.061. AAAAAAGTGG gave a switch fluorescence ratio of 1.02 ± 0.026. For AAAAAATAGG, the switch fluorescence ratio was 1.01 ± 0.028. Work on AAAAAATAGT yielded a switch fluorescence ratio of 1 ± 0.019. Sequence AAAAAATGCT has a switch fluorescence ratio of 1.01 ± 0.014. For AAAAAATTCG, the switch fluorescence ratio was 1.03 ± 0.017. AAAAACAGGT was tested, and the switch fluorescence ratio was 1.02 ± 0.013. With AAAAAGCTGA the switch fluorescence ratio was 0.973 ± 0.055. In the case of AAAAAGGATT, the switch fluorescence ratio is reported as 1 ± 0.02. With AAAAAGGTGG the switch fluorescence ratio was 1.06 ± 0.047. Sequence AAAAAGGTTT has a switch fluorescence ratio of 0.978 ± 0.037. For AAAAAGTTAG, the switch fluorescence ratio was 0.998 ± 0.023. AAAAATAAGC gave a switch fluorescence ratio of 1.03 ± 0.072. AAAAATATGC was tested, and the switch fluorescence ratio was 0.996 ± 0.017. Work on AAAAATCTGG yielded a switch fluorescence ratio of 1.45 ± 0.67. Sequence AAAAATGCGG has a switch fluorescence ratio of 1.01 ± 0.077. With AAAAATGGTG the switch fluorescence ratio was 0.981 ± 0.033. For AAAAATGTGT, the switch fluorescence ratio was 0.971 ± 0.01. AAAAATTAAT showed a switch fluorescence ratio of 0.979 ± 0.023. AAAAATTTCG was tested, and the switch fluorescence ratio was 1.05 ± 0.063. Work on AAAAATTTGT yielded a switch fluorescence ratio of 0.993 ± 0.05. AAAAATTTTT gave a switch fluorescence ratio of 0.995 ± 0.052. In the case of AAAACAAACT, the switch fluorescence ratio is reported as 1.26 ± 0.38. AAAACAGGAT was tested, and the switch fluorescence ratio was 0.9954 ± 0.0095. Sequence AAAACATAGC has a switch fluorescence ratio of 0.965 ± 0.056. In the case of AAAACCGCGA, the switch fluorescence ratio is reported as 1.59 ± 0.28. With AAAACGAGAT the switch fluorescence ratio was 1.05 ± 0.039. Work on AAAACGAGTC yielded a switch fluorescence ratio of 1.07 ± 0.031. With AAAACGCGCT the switch fluorescence ratio was 0.965 ± 0.079. In the case of AAAACGGAAC, the switch fluorescence ratio is reported as 1.05 ± 0.028. In the case of AAAACTTTGA, the switch fluorescence ratio is reported as 1 ± 0.017. For AAAAGACGGT, the switch fluorescence ratio was 1.015 ± 0.0016. AAAAGATATT was tested, and the switch fluorescence ratio was 0.996 ± 0.049. AAAAGATTGG was tested, and the switch fluorescence ratio was 0.969 ± 0.011. Work on AAAAGCAGCG yielded a switch fluorescence ratio of 1.03 ± 0.05. Sequence AAAAGCAGTT has a switch fluorescence ratio of 1.028 ± 0.004. In the case of AAAAGCGCT, the switch fluorescence ratio is reported as 0.999 ± 0.025. Sequence AAAAGCGTAG has a switch fluorescence ratio of 1.01 ± 0.015. AAAAGCGTTA gave a switch fluorescence ratio of 0.9962 ± 0.009. AAAAGCTACT gave a switch fluorescence ratio of 1.06 ± 0.053. AAAAGCTCGT showed a switch fluorescence ratio of 1 ± 0.05. For AAAAGCTTAT, the switch fluorescence ratio was 1.05 ± 0.03. AAAAGCTTTT gave a switch fluorescence ratio of 0.988 ± 0.034. AAAAGGAAT gave a switch fluorescence ratio of 1.001 ± 0.009. AAAAGGACGT showed a switch fluorescence ratio of 0.962 ± 0.0056. Sequence AAAAGGGGAA has a switch fluorescence ratio of 1.02 ± 0.025. In the case of AAAAGGGGAG, the switch fluorescence ratio is reported as 1.14 ± 0.16. AAAAGGGGAT gave a switch fluorescence ratio of 0.997 ± 0.036. In the case of AAAAGGGGTG, the switch fluorescence ratio is reported as 1.09 ± 0.025. AAAAGGTGCC showed a switch fluorescence ratio of 1.13 ± 0.024. Work on AAAAGGTTAC yielded a switch fluorescence ratio of 1.06 ± 0.033. AAAAGGTTAG was tested, and the switch fluorescence ratio was 1.0185 ± 0.00083. In the case of AAAAGGTTGT, the switch fluorescence ratio is reported as 0.999 ± 0.038. AAAAGTGAAA showed a switch fluorescence ratio of 1.14 ± 0.2. In the case of AAAAGTTATT, the switch fluorescence ratio is reported as 0.986 ± 0.027. AAAAGTTCTG was tested, and the switch fluorescence ratio was 1.01 ± 0.057. AAAAGTTTTC showed a switch fluorescence ratio of 0.975 ± 0.0098. Sequence AAAATAAGGT has a switch fluorescence ratio of 0.969 ± 0.043. AAAATACGGG was tested, and the switch fluorescence ratio was 1.21 ± 0.21. Work on AAAATACGTT yielded a switch fluorescence ratio of 1.23 ± 0.16. Work on AAAATAGAGC yielded a switch fluorescence ratio of 1.05 ± 0.062. AAAATAGGGA was tested, and the switch fluorescence ratio was 0.989 ± 0.024. AAAATATACA showed a switch fluorescence ratio of 1.01 ± 0.027. In the case of AAAATATGGG, the switch fluorescence ratio is reported as 0.987 ± 0.031. AAAATCACGG was tested, and the switch fluorescence ratio was 1.14 ± 0.1. AAAATCGAAA gave a switch fluorescence ratio of 0.99 ± 0.015. In the case of AAAATCTAAT, the switch fluorescence ratio is reported as 1.01 ± 0.054. AAAATCTTAG gave a switch fluorescence ratio of 1 ± 0.036. AAAATGAACG showed a switch fluorescence ratio of 1.08 ± 0.047. AAAATGACGT showed a switch fluorescence ratio of 1.04 ± 0.049. AAAATGCATC was tested, and the switch fluorescence ratio was 1.04 ± 0.038.
